From article PMC3302767

What was measured:
[1] = target: Plasmodium falciparum formin 1 FH1 and FH2 domains (Pf-Frm1-FH1FH2) (P. falciparum); assay: SEC-MALS; Superdex 200 10/300 GL, 200 µl of each formin at 1 mg/ml; 50 mM sodium phosphate pH 7.0, 50 mM NaCl, 1 mM DTT; monomer to dimer
[2] = target: Plasmodium falciparum formin 1 FH2 domain with the lasso segment (Pf-Frm1-FH2) (P. falciparum); assay: as above

Substance	stoichiometry N [1]	stoichiometry N [2]
Plasmodium falciparum formin 1 FH1 and FH2 domains (Pf-Frm1-FH1FH2) (domain or fragment)	2	
Plasmodium falciparum formin 1 FH2 domain with the lasso segment (Pf-Frm1-FH2) (domain or fragment)		2
